{
  "source": "paper PMC12305709",
  "about": "“Functional investigation of the RNA helicase MOV10 with respect to its interplay with factors involved in nonsense-mediated mRNA decay” (The Journal of Biological Chemistry, 2025)",
  "key": {"UPF1 [1]": {"biological_target": "T1, UPF1 (Homo sapiens, UniProt Q92900-2 115-914)", "T1 sequence": "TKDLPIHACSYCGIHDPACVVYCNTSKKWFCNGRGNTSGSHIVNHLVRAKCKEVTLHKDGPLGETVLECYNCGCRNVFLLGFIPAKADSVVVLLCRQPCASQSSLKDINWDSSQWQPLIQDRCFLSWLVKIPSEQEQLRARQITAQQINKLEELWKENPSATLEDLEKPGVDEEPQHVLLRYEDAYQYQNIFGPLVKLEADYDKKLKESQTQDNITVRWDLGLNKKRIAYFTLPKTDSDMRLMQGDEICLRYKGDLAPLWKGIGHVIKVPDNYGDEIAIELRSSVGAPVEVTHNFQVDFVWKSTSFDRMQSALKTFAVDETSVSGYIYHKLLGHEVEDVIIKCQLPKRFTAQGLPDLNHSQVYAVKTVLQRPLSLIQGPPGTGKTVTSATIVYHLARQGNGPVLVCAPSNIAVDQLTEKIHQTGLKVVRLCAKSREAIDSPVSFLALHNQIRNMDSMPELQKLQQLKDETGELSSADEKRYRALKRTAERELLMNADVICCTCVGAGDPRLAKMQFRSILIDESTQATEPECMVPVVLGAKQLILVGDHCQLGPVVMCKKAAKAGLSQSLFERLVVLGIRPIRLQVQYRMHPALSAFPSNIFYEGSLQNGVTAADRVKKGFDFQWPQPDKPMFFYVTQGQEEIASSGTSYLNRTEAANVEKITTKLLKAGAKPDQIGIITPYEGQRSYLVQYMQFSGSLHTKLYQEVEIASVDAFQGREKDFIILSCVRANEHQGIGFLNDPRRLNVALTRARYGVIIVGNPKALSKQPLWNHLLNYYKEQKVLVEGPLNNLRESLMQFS"}, "[2]": {"biological_target": "GST-MOV10NTD-UPF1hel (human) (UniProt Q92900)", "sequence (Q92900 whole entry, looked up)": "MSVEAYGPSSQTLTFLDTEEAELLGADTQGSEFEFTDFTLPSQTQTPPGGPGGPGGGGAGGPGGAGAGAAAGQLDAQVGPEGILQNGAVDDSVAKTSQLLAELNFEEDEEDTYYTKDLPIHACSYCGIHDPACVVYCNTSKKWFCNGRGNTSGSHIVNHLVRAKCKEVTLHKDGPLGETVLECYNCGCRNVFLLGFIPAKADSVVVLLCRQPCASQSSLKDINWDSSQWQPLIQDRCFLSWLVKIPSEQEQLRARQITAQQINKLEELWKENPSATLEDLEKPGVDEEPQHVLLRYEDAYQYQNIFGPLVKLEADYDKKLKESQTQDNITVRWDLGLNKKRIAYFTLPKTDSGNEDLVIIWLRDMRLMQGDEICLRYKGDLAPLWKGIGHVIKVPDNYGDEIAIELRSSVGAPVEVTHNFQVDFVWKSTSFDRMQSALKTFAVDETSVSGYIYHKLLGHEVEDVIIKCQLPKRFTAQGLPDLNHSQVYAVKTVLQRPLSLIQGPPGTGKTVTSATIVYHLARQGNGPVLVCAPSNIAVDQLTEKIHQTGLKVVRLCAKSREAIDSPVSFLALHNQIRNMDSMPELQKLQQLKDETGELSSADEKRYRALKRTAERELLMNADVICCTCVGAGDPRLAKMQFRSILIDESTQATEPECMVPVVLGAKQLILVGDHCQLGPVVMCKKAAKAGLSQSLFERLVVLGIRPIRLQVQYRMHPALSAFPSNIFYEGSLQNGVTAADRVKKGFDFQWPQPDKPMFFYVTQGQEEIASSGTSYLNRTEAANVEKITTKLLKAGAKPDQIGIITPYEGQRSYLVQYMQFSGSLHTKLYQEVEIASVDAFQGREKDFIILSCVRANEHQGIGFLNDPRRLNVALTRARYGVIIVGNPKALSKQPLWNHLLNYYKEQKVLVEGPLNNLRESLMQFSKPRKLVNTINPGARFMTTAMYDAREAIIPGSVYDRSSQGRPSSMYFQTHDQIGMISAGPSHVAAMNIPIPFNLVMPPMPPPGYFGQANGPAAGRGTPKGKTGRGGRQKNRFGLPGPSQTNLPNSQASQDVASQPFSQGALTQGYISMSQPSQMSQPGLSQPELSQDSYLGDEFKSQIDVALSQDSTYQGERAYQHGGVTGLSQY"}, "Flag-MOV10hel": {"biological_target": "T2, Flag-MOV10hel (human, UniProt Q9HCE1 289-1001)", "T2 construct": "MOV10, human, helicase core, residues 289-1001; also called helicase core of MOV10; source: HEK293, transfected, immunopurified on anti-Flag M2 agarose", "T2 sequence (looked up)": "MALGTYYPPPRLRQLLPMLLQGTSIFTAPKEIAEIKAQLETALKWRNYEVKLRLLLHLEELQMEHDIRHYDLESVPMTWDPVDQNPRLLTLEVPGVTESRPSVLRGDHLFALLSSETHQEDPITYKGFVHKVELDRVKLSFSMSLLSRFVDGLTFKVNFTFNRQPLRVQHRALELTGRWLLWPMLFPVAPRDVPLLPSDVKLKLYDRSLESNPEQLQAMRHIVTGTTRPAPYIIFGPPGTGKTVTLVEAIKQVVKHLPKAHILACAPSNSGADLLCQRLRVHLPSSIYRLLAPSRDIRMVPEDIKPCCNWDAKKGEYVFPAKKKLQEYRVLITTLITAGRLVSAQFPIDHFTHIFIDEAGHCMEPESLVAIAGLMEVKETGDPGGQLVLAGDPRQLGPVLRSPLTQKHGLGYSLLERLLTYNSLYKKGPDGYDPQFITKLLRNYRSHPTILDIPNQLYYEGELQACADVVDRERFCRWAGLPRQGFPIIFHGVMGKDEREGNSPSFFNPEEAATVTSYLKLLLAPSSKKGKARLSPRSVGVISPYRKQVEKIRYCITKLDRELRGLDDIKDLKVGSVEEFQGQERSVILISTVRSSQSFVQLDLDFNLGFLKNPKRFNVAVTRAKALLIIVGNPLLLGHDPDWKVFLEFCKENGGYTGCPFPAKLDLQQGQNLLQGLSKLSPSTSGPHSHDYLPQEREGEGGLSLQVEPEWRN", "assay": "co-IP; as a2, but cell lysates treated with RNase A (60 ug/uL, 10 min, 25 C); SDS-PAGE, Coomassie, densitometry of the UPF2 band", "conditions": "both partners purified"}, "UPF1 [3]": {"biological_target": "T1, UPF1", "assay": "fluorescence anisotropy; no nucleotide; affinity comparable to P1; Kd only in figure; 20 mM Hepes pH 7.5, 100 mM NaCl, 1 mM MgCl2, 100 ug/ml BSA; 5 nM RNA; 30 min room temperature, read at 25 C", "conditions": "protein: recombinant; tags: 6xHis, His-Trx or His-GST fusion in E. coli; label: 5' 6-FAM; single strand"}, "[4]": {"biological_target": "T3, MOV10NTD-UPF1hel (Chimera 3) (Homo sapiens, UniProt Q9HCE1 1-264+=GSAGAAGSGA+Q92900-2:295-914, internal_change)", "T3 sequence": "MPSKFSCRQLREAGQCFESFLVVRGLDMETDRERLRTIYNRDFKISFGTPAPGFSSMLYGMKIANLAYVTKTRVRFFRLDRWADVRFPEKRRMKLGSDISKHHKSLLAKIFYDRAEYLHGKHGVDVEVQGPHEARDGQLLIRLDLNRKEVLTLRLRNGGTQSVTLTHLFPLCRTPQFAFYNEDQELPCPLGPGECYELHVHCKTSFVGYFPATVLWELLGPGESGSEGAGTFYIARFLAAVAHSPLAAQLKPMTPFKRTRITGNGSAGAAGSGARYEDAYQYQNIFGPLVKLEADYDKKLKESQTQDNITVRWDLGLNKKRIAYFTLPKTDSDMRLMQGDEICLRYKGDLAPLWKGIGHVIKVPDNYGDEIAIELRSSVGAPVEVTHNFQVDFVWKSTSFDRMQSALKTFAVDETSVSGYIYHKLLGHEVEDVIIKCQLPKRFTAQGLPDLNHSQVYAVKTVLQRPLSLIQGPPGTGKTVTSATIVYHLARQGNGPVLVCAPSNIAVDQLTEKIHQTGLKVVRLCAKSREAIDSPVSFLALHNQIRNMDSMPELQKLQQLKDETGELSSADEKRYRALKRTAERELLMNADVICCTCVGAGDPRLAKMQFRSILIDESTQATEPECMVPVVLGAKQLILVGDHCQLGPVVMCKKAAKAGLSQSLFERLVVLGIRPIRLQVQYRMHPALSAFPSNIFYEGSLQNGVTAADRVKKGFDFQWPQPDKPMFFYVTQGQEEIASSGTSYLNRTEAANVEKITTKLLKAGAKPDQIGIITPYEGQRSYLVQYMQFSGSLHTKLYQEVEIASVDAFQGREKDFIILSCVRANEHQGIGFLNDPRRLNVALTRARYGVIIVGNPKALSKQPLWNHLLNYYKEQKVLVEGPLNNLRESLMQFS", "assay": "fluorescence anisotropy; no nucleotide; 1 mM Mg2+; 20 mM Hepes pH 7.5, 100 mM NaCl, 1 mM MgCl2, 100 ug/ml BSA; 5 nM RNA; 30 min room temperature, read at 25 C", "conditions": "protein: recombinant; tags: 6xHis, His-Trx or His-GST fusion in E. coli; label: 5' 6-FAM; single strand"}},
  "data": [
    {"molecule": "UPF2s (domain or fragment)", "values": [
      {"measurement": "RNA-dependent ATPase activity of UPF1 upon addition of UPF2 (1.5-fold excess), against UPF1 alone", "setting": "UPF1 [1]", "value": 2.4, "unit": "fold"},
      {"measurement": "RNA-dependent ATPase activity of MOV10NTD-UPF1hel upon addition of UPF2 (1.5-fold excess), against the chimera alone", "setting": "[2]", "value": 1.1, "unit": "fold"},
      {"measurement": "nucleic acid unwinding activity of MOV10NTD-UPF1hel (300 nM) upon addition of UPF2 (600 nM), against the chimera alone", "setting": "[2]", "value": 1.25, "unit": "fold"}
    ]},
    {"molecule": "UPF2 (near full-length variant, residues 121-1227) (domain or fragment, human, UniProt Q9HAU5 121-1227, looked up, UPF2, human, residues 121-1227; also called near full-length UPF2) MKEKEESIQLHQEAWERHHLRKELRSKNQNAPDSRPEENFFSRLDSSLKKNTAFVKKLKTITEQQRDSLSHDFNGLNLSKYIAEAVASIVEAKLKISDVNCAVHLCSLFHQRYADFAPSLLQVWKKHFEARKEEKTPNITKLRTDLRFIAELTIVGIFTDKEGLSLIYEQLKNIINADRESHTHVSVVISFCRHCGDDIAGLVPRKVKSAAEKFNLSFPPSEIISPEKQQPFQNLLKEYFTSLTKHLKRDHRELQNTERQNRRILHSKGELSEDRHKQYEEFAMSYQKLLANSQSLADLLDENMPDLPQDKPTPEEHGPGIDIFTPGKPGEYDLEGGIWEDEDARNFYENLIDLKAFVPAILFKDNEKSCQNKESNKDDTKEAKESKENKEVSSPDDLELELENLEINDDTLELEGGDEAEDLTKKLLDEQEQEDEEASTGSHLKLIVDAFLQQLPNCVNRDLIDKAAMDFCMNMNTKANRKKLVRALFIVPRQRLDLLPFYARLVATLHPCMSDVAEDLCSMLRGDFRFHVRKKDQINIETKNKTVRFIGELTKFKMFTKNDTLHCLKMLLSDFSHHHIEMACTLLETCGRFLFRSPESHLRTSVLLEQMMRKKQAMHLDARYVTMVENAYYYCNPPPAEKTVKKKRPPLQEYVRKLLYKDLSKVTTEKVLRQMRKLPWQDQEVKDYVICCMINIWNVKYNSIHCVANLLAGLVLYQEDVGIHVVDGVLEDIRLGMEVNQPKFNQRRISSAKFLGELYNYRMVESAVIFRTLYSFTSFGVNPDGSPSSLDPPEHLFRIRLVCTILDTCGQYFDRGSSKRKLDCFLVYFQRYVWWKKSLEVWTKDHPFPIDIDYMISDTLELLRPKIKLCNSLEESIRQVQDLEREFLIKLGLVNDKDSKDSMTEGENLEEDEEEEEGGAETEEQSGNESEVNEPEEEEGSDNDDDEGEEEEEENTDYLTDSNKENETDEENTEVMIKGGGLKHVPCVEDEDFIQALDKMMLENLQQRSGESVKVHQLDVAIPLHLKSQLRKGPPLGGGEGEAESADTMPFVMLTRKGNKQQFKILNVPMSSQLAANHWNQQQAEQEERMRMKKLTLDINERQEQED", "values": [
      {"measurement": "fold less UPF2 coprecipitated than with Flag-MOV10fl and Flag-MOV10NTD", "setting": "Flag-MOV10hel", "value": "~4", "unit": "fold less"}
    ]},
    {"molecule": "UUUUUUUUUUUU (ssRNA)", "note": "[U12 RNA]", "values": [
      {"measurement": "binding result", "setting": "UPF1 [3]", "value": "binds"},
      {"measurement": "Kd", "setting": "[4]", "value": 0.036, "unit": "µM"}
    ]}
  ]
}
